Reference: the supplement of paper PMC12042874
± gives the uncertainty stated by the source.

assay: amyloid nucleation score (Sup35N fusion, yeast selection) (log enrichment); library NNK2; higher = more nucleation; inactive = no reads after selection
In short: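 In psi-negative yeast, Sup35N fusions carrying peptides of 20 random codons were induced with 100 μM copper sulfate for 24 hours. The cells then grew 7 days at 30°C on medium lacking adenine and uracil, and plasmid inserts from input and output were Illumina-sequenced, excluding sequences with under 100 input reads. Nucleation score is the DiMSum log enrichment of output over input reads, centred on the mode score of non-aggregating sequences.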

Point of comparison: TDNHFVTRCTYVAFQLTYKV, amyloid nucleation score -0.375 ± 1.1. Against it:
- SLQRIKGNFQPMVFAINMFN — higher, 4.6 ± 0.11
- SLRWDYLHLVWRHAEGGYGK — higher, 6.678 ± 0.038
- SLSDELAERNSRCTRLTPWM — higher, 1.61 ± 0.23
- SLSNCSTWTSF — within error, 0.02 ± 1
- SLSTSFLYDFWVLNSADPRY — within error, -0.258 ± 0.76
- SLSVI — within error, 0.264 ± 0.65
- SLTTLCNLTIWDH — within error, 0.756 ± 0.53
- SLTTLTAVHSCFRLNAWLYF — within error, 0.477 ± 0.29
- SLVIKTLMIFAYSGATVSRG — within error, -0.545 ± 0.64
- SLVSFFVIKRSYFSTRLCTG — within error, -0.399 ± 0.61
- SLWVASGQSFSDSRQRNVAG — higher, 2.27 ± 0.19
- SMICGFKLASHSVG — within error, -0.65 ± 0.45
- SMIDGWGRVFHYAVVQISMN — higher, 6.158 ± 0.032
- SMLESNFRGFFYQ — higher, 2.56 ± 0.15
- SMPLASSMSKHNHWHLV — within error, 0.13 ± 0.35
- SMPPRLQSKLPRDFSAQSVK — higher, 4.63 ± 0.1
- SMTNNMGLLE — within error, -0.979 ± 0.76
- SMYVINRSI — within error, -0.198 ± 0.31
- SNFETDTL — higher, 1.82 ± 0.14
- SNGPW — within error, -0.512 ± 0.76
- SNMIHDEIWLMGEDSDF — within error, 0.674 ± 0.49
- SNPDSLVLAGMLARMAYRKL — within error, -0.423 ± 0.61
- SNPTSVQVRFLLHILLKSVL — within error, 0.629 ± 0.52
- SNRHSVRKAAWIWGRDFLRA — within error, 0.346 ± 0.38
- SNSCHNAATRGYR — within error, 0.315 ± 0.74
- SPFNRLHY — within error, -0.101 ± 1.1
- SPGRLFATEFVVVYVKYHSP — within error, -0.121 ± 0.37
- SPLHRDCGNQLTE — within error, 0.814 ± 0.17
- SPLSSKDCYGKTERSVWHVM — within error, 0.588 ± 0.4
- SPSDSAL — within error, -0.501 ± 0.64
- SQFLEYTFEYFSGFPGRLVE — within error, -0.316 ± 0.42
- SQLYE — higher, 1.23 ± 0.44
- SQPSDWVYFNVGYCCVLMCL — higher, 9.398 ± 0.027
- SQSHNIYQ — higher, 3.46 ± 0.14
- SQVSHLRLDVPVAEI — higher, 4.04 ± 0.078
- SRCNISTRLLATLDVLQEKE — higher, 2.25 ± 0.08
- SRCVCMFTEIPATAFPMKVR — within error, -0.94 ± 0.64
- SRDVSLRYCTWCPGVN — within error, 0.789 ± 0.22
- SRERPHFPLLIPGENMIMLM — higher, 1.04 ± 0.1
- SRFRIMSNLGVKWGPCRVYL — within error, 0.164 ± 0.8
- SRICLLTYMGSIINRDVSVY — within error, -1.6 ± 0.55
- SRKLRLVRGFWG — within error, -0.067 ± 0.62
- SRLGFMAKPLMDVS — higher, 2.79 ± 0.09
- SRLISFLRSRQDDSQISLGW — within error, -0.445 ± 0.49
- SRLKIFIPNVFL — within error, -0.067 ± 1.1
- SRLLIREYNLVSNDKFIYFV — higher, 3.01 ± 0.073
- SRLRRKEYGDWFFYYGWSTN — within error, 0.237 ± 1
- SRNIMLGWVPWYYCWKAPSI — within error, 0.034 ± 0.63
- SRNISQKLHTYMTYGSKVGY — within error, -0.229 ± 0.32
- SRPDLHHAKALYFNDLRRE — within error, 0.232 ± 0.27
- SRRDGCGAPSKTSNWA — within error, 0.64 ± 0.8
- SRRFFQKIRLWGMTDQQKGM — higher, 3.08 ± 0.072
- SRSVLSNSDTPTNNAVNCVA — within error, -0.027 ± 0.56
- SRTIGTMQLVTMNWCFRKEA — higher, 5.37 ± 0.045
- SRTRGTLDGS — within error, 0.241 ± 0.36
- SRVIVGLWYDGRVKPLELCM — within error, 0.342 ± 0.62
- SRVSLHNES — within error, -0.453 ± 1.1
- SRYGRTEGRFFVRRRGMHHG — within error, 0.21 ± 0.32
- SSDYGIQPCFTTTSLLLLFN — within error, -0.914 ± 0.48
- SSEEFNVCYYGDPYKSVRTR — within error, 0.341 ± 0.47
- SSFIRGLTSKAG — within error, 1.05 ± 0.57
- SSFRVELHRCFVKVFLLLY — within error, -0.266 ± 1
- SSIDMSCQHHLVALIRGFKE — higher, 2.24 ± 0.2
- SSKSCVPQVLINILDDSTVN — within error, -0.632 ± 0.79
- SSLSGYGSYGLLPRWLRLVT — higher, 1.81 ± 0.4
- SSLTANGNNSMT — within error, -0.173 ± 0.63
- SSLTPHWRVRKYDWYSIGSG — within error, -0.8 ± 0.41
- SSMERCEHLQVLEAFLWSVE — higher, 1.87 ± 0.16
- SSMLANSMWRSFSVSYGTML — within error, 0.929 ± 0.36
- SSMQPHLVSSVL — higher, 3.7 ± 0.07
- SSMSLWFMHYRNSKSCL — within error, -0.721 ± 0.33
- SSMSNIEE — within error, -1.15 ± 0.42
- SSNLKYGKSIFGNSFLQSVF — within error, -1.27 ± 0.62
- SSRHNPIWLRTAMDGDLGFA — within error, 0.864 ± 0.5
- SSRRV — within error, 0.497 ± 0.56
- SSSIRVRTDEHMEVAGKRLS — within error, 0.217 ± 0.27
- SSSRS — within error, 0.66 ± 0.62
- SSSSPHLDNLLGSGRLEIPS — within error, 0.56 ± 0.56
- SSSWLCYTSFWYVNHSRRSL — higher, 8.051 ± 0.043
- SSTFCS — within error, 0.405 ± 0.64
- SSTIITSLTHFCSTGDWEVV — within error, -0.434 ± 0.24
- SSTYIERGLSHGKDRT — within error, 0.731 ± 0.46
- SSWLRINRIYLYEQL — within error, -0.305 ± 1
- SSYGLVKR — within error, 0.655 ± 0.35
- SSYTLGFFRCNRFWCLCIDC — within error, -1.2 ± 0.56
- STASLHGVMLGMRLKNPLGV — within error, -0.97 ± 0.63
- STCVGEYLHCSLSCAGMVLL — higher, 6.593 ± 0.049
- STELYARMVKCCVGIADYTD — within error, 0.491 ± 0.66
- STFLCVLTGMCCMARMS — within error, 0.54 ± 0.64
- STIEAGCTVVCA — within error, 0.24 ± 0.49
- STILTSVFMFWVCGCFNNKT — higher, 7.03 ± 0.078
- STKVR — higher, 1.3 ± 0.32
- STMAFWSYHGWCYGVLIL — within error, -0.898 ± 0.61
- STMVVRVFIGNVFMSFNMIR — higher, 4.36 ± 0.059
- STQLDSKILINLRFFRMSIV — within error, -0.081 ± 1.1
- STRLEVLKLERKIMSSKLFL — within error, 0.699 ± 0.18
- STSIAVANHWVSYFFVSSGL — higher, 8.998 ± 0.038
- STSSKVGVEAYTRDDRHLLS — higher, 1.01 ± 0.19
- STWLS — within error, -0.626 ± 1.1
- STWPIGPSCSLIVCREDCET — higher, 1.45 ± 0.34
- SVCLSPYLSLNYFYWWNSKR — higher, 8.377 ± 0.046
- SVCSSRGDAMSGVLPCAGGL — within error, 0.124 ± 0.55
- SVEFVLMRLGQLT — higher, 4.18 ± 0.058
- SVFAKGISAVLLGACLRIAA — higher, 1.03 ± 0.25
- SVFVGLRLGKAS — within error, 0.11 ± 0.28
- SVFVYYGFQENSAFSIWLAP — within error, -0.96 ± 0.54
- SVGMKLRREEFGRSAVRAVL — within error, 0.901 ± 0.28
- SVINYVFMGDHPYHNVIFRF — higher, 7.576 ± 0.051
- SVLSLFWLFTDFLVVSHDIL — within error, -0.784 ± 1.1
- SVNFSANRRNIDGFERAGPA — within error, -0.476 ± 1.1
- SVNNHGRLYVWLERLSYTTF — higher, 2.24 ± 0.14
- SVRAVRMWIMDRNAARRMSG — higher, 0.997 ± 0.17
- SVSIPCNNCCRLLCRMFKLC — within error, -0.716 ± 0.28
- SVTRRVSYRSYLVLVGEWKQ — within error, 0.901 ± 0.32
- SVVGSYYI — within error, -0.878 ± 0.36
- SVVRTRTRTVRVMETWISVW — within error, 0.237 ± 1
- SVWPGRSAEASRFGFGAGAD — within error, 0.528 ± 0.49
- SVYHLRLI — within error, -0.494 ± 0.42
- SVYLNPHPTLMGNQSVLKLI — within error, 1.29 ± 0.66
- SWGLRTWF — within error, 1.06 ± 0.39
- SWINLQVS — within error, -1.5 ± 0.75
- SWLYIQFFNLVLKTIVGLGV — within error, 0.026 ± 1.1
- SWPPKAQLMAVARCSAREAD — within error, -0.337 ± 1.1
- SWQDSLYRAQCFLCSWSKTV — within error, -0.575 ± 0.34
- SWWYSKELKSRSAILATMMK — within error, -0.151 ± 0.28
- SYADRVILLVSCVVPWAPLR — higher, 3.31 ± 0.15
- SYCSL — within error, 0.548 ± 0.38
- SYFLGFVRYAVILSGMLLST — within error, -0.281 ± 0.56
- SYGLLKYGI — within error, -0.891 ± 0.35
- SYKMGEFTTFSLSRICK — higher, 1.12 ± 0.27
- SYRELIYRDWLYRHVTL — higher, 1.1 ± 0.11
- SYSPSVQ — within error, -0.043 ± 0.55
- SYTSAYSRYIWRHQIIMGKK — within error, -1.11 ± 0.42
- SYWKTSKCMTKLLGCNM — within error, -0.243 ± 0.45
- SYYSNSLVGDFPVPISNSVM — within error, -0.249 ± 1.1
- TAFVSHL — within error, -0.288 ± 1.1
- TAGSTSSEADISLF — higher, 4.02 ± 0.13
- TAHHITSVWYVVLVRLRFRQ — higher, 1.76 ± 0.35
- TAKHDYFLSEESRRLYSSKY — higher, 2.31 ± 0.063
- TAVCKISPQQWAGCHLIHRH — higher, 5.3 ± 0.095
- TAVERVSTR — higher, 4.94 ± 0.08
- TAYSA — within error, 0.521 ± 0.41
- TCCKLEDSYSWSALKLTSLA — higher, 1.27 ± 0.35
- TCGYGLSWLSGSPSMIMWMW — within error, 0.009 ± 0.63
- TCLMDGSTCTRFGGPLEPMC — within error, 0.028 ± 0.79
- TCLRSIVVVFLALGLDSFFW — within error, -0.177 ± 0.3
- TCSSPTMKSYMNHCLHVDSF — within error, 0.516 ± 0.47
- TCVVIQGIRGWGWMSVSFMP — within error, -0.829 ± 0.63
- TDANESDR — within error, 0.905 ± 0.36
- TDDMCYSEMYIRCVRLFEIV — higher, 2.34 ± 0.11
- TDSRFLWGSKRNHCVRWCML — within error, -0.242 ± 1.1
- TDVFCLDKSVQTRILTEVAT — within error, -0.439 ± 0.41
- TDYVRHKRRNYCLL — within error, 1.12 ± 0.43
- TEDVDL — higher, 1.5 ± 0.2
- TERLICMRTSMPSFIYVFWD — within error, -0.847 ± 0.54

In the case of SLSTHIFLSSGLSLTFKKRS, the amyloid nucleation score is reported as “inactive”.
In the case of SNITDWVTTKVRMEKRPVVQ, the amyloid nucleation score is reported as “inactive”.
In the case of SQILTMWYLVIYYMSNRFGG, the amyloid nucleation score is reported as “inactive”.
With SRLYGLDCRILFVNFYTKLP the amyloid nucleation score was “inactive”.
With SRNNIAQFCSLHAN the amyloid nucleation score was “inactive”.
In the case of SSTEMSFYMIHKIFAVY, the amyloid nucleation score is reported as “inactive”.
For SSYNCPHINVCSPSAPNTQM, the amyloid nucleation score was “inactive”.
With STSICYFLYRLWSHISLNSL the amyloid nucleation score was “inactive”.
In the case of SVCFFVLFYIYSYCRHVMKW, the amyloid nucleation score is reported as “inactive”.
For SVDSLWQYQSFRALFPCFMS, the amyloid nucleation score was “inactive”.
For SVRHCLSLSSM, the amyloid nucleation score was “inactive”.
In the case of SYSMLIMFFFVIKYRSDFQL, the amyloid nucleation score is reported as “inactive”.
With SYVVGRFNLSRCHLSCGLVS the amyloid nucleation score was “inactive”.
With TAASISIDRTKSMPLSDRMY the amyloid nucleation score was “inactive”.
For TANLKDSGQSYFKTRSVWTF, the amyloid nucleation score was “inactive”.
